Target: the molecule itself
Test: non-reducing SDS-PAGE and Western blot; whole cell lysates of DLD-1 cells treated with ABT/AZD or MTX, with or without PF-543 (also thapsigargin, fumonisin B1; CerS6 knock-out cells), under non-reducing conditions, blotted for CRT; disulfide-linked dimer

B1: calreticulin (natural protein, human (endogenous in DLD-1), UniProt P27797 18-417, looked up)
chain: EPAVYFKEQFLDGDGWTSRWIESKHKSDFGKFVLSSGKFYGDEEKDKGLQTSQDARFYALSASFEPFSNKGQTLVVQFTVKHEQNIDCGGGYVKLFPNSLDQTDMHGDSEYNIMFGPDICGPGTKKVHVIFNYKGKNVLINKDIRCKDDEFTHLYTLIVRPDNTYEVKIDNSQVESGSLEDDWDFLPPKKIKDPDASKPEDWDERAKIDDPTDSKPEDWDKPEHIPDPDAKKPEDWDEEMDGEWEPPVIQNPEYKGEWKPRQIDNPDYKGTWIHPEIDNPEYSPDPSIYAYDNFGVLGLDLWQVKSGTIFDNFLITNDEAYAEEFGNETWGVTKAAEKQMKDKQDEEQRLKEEEEDKKRKEEEEAEDKEDDEDKDEDEEDEEDKEEDEEEDVPGQAKDEL
notes: calreticulin (CRT), the normally ER resident chaperone, endogenous in human colorectal DLD-1 cells; Seen as a disulfide-linked dimer on Western blots run under non-reducing conditions; also called CRT; ectoCRT; source: endogenous, DLD-1 whole cell lysate (RIPA)
- stoichiometry N: 2
